Experimental data reported in US20220323563A1.
Like-named read-outs stand apart in the source and are kept apart here.

Experiments:
[1] = target: Fcγ fragment of human IgG (human); assay: BLI, Ni-NTA sensor, SpA immobilised, Fc fragment of human IgG in solution
[2] = target: Fcγ fragment of human IgG (human)
[3] = target: F(ab)2 fragment of human IgG (human)

SpA (wild-type protein A, recombinant five IgBDs) (from UniProt P02976 37-327)
Ka [1]: 5.17e+07 M⁻¹

SpAQ9,10K/S33T (from UniProt P02976 37-327)
Ka [2]: 39.9 M⁻¹
Ka [3]: 43.5 M⁻¹

SpAQ9,10K/G29F/D36,37A (from UniProt P02976 37-327)
human IgE affinity (human IgE): 2.02e-05

SpAQ9,10K/S33E (from UniProt P02976 37-327)
Ka [2]: 32.7 M⁻¹
Ka [3]: 41.2 M⁻¹
